Data taken from the supplement of paper PMC9170038.

System: K4 kissing-loop RNA reporter
Assay: apparent KD of K4 kissing-loop reporter; higher = weaker reporter binding
Details: Eterna round: R107
Method: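 RNA-MaP round R107: designed RNA switches with theophylline, tryptophan, arginine or FMN aptamers are transcribed on-chip within common flanks. They are titrated with a labelled K4 kissing-loop RNA reporter in RNA-MaP buffer (100 mM Tris pH 7.5, 80 mM KCl, 4 mM MgCl2), without ligand or with the indicated ligand. Median apparent KD per design.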

[1] = input ligand: theophylline 20 uM
[2] = input ligand: tryptophan 2.4 mM
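Note: bound reporter read as fluorescence of individual clusters on recovered sequencing chips by microscopy, with normalized cluster intensities fitted with a binding model.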

| Sequence | apparent KD of K4 kissing-loop reporter (input ligand: FMN 200 uM) | apparent KD of K4 kissing-loop reporter (input ligand: arginine 13.2 mM) | apparent KD of K4 kissing-loop reporter (input ligand: none) | apparent KD of K4 kissing-loop reporter [1] | apparent KD of K4 kissing-loop reporter [2] |
| --- | --- | --- | --- | --- | --- |
| UGACUGGACUGAAGGAGCGUUGAAGGAGCGUAAGGAGUGAUGUUCCAUACAGGUAGGUCGCAGCAGGUAGGUCGCAGUCUAGUCU [ArgBS 26 #DoubleAptamer #SwitchBubble] | 204 nM | 245 nM | 229 nM | 171 nM | 281 nM |
| UGACUGGACUGAAGGAGCGUUGAAGGAGCGUAGGCAGUGAUGUUGCCUACAGGUAGGUCGCAGCAGGUAGGUCGCAGUCUAGUCU [ArgBS 27 #DoubleAptamer #SwitchBubble] | 132 nM | 92.1 nM | 108 nM | 66.1 nM | 107 nM |
| UGACUGGAUGGAAGGAGCGCUAAACUCCUAGUGAUGUUAGGGACACGAGACAAAGUCUUGAGGCAGGUAGGUCGCCAUCUAGUCU [FiskerMod 8 - Jieux - Same State - Arginine B] | 379 nM | 211 nM | 251 nM | 250 nM | 241 nM |
| UGACUGGAUGGAAGGAGCGCUAAACUCCUAGUGAUGUUAGGGAUAUGAGGCAAAGCCUCGAGGCAGGUAGGUCGCCAUCUAGUCU [FiskerMod 19 - Jieux - Same State - Arginine B] | 138 nM | 114 nM | 135 nM | 142 nM | 122 nM |
| UGACUGGAUUGAAGGAGCGCUAAACUCCUAGUGAUGUUAGGGAAACAAGACAAAGUCUUGAGGCAGGUAGGUCGCAAUCUAGUCU [FiskerMod 4 - Jieux - Same State - Arginine B] | 182 nM | 149 nM | 173 nM | 234 nM | 175 nM |
| UGAGGAGAUUAUGAUACCAGCAGAGAGAGAGAGGAAGUAUAGUGAUGUUAUAUGAGAUAAUGCCCUUGGCAGCAUAAGAAGAAGG [#20 K4 Theophylline B Same State] | 182 nM | 133 nM | 148 nM | 147 nM | 140 nM |
| UGAUACCAGACGGCCGCCACUAGGACCGGGAGUGAUGUUCCCAAUUUAAAAUGCUCGGCCGCCACUAGGACCGGGUCUGGUAUCU [TrypBX 27 #DoubleAptamer #SwitchBubble] | 173 nM | 207 nM | 198 nM | 305 nM | 109 nM |
| UGAUACCAGACGGCCGCCACUCCCGUAAGUCAAAGACUUACGAAGAGAGUUGUCCAGUGAUGUUGGAGGACCGGGUCUGGUAUCU [FiskerMod 13 - Jieux - Exclusion - Tryptophan B] | 230 nM | 208 nM | 207 nM | 202 nM | 260 nM |
| UGAUACCAGACGGCCGCCACUCCCGUAAGUCAAAGACUUACGAAGAGGGUUUUUUAGUGAUGUUGGAGGACCGGGUCUGGUAUCU [FiskerMod 18 - Jieux - Exclusion - Tryptophan B] | 618 nM | 256 nM | 618 nM | 653 nM | 2320 nM |
| UGAUACCAGACGGCCGCCACUCCUGCAGUCAAAGACUGCAAGGAAAUAUUCGUCCAGUGAUGUUGGAGGACCGGGUCUGGUAUCU [TrypBX 9 #SwitchBubble #Palindromic #StaticStem] | 921 nM | 687 nM | 820 nM | 670 nM | 1060 nM |
| UGAUACCAGACGGCCGCCACUUCUGCAAGUCAAAGACUUGCUAAGGGAAUCGUCCAGUGAUGUUGGAGGACCGGGUCUGGUAUCU [FiskerMod 2 - Jieux - Exclusion - Tryptophan B] | 1050 nM | 823 nM | 1200 nM | 999 nM | 1050 nM |
| UGAUACCAGACUGAUACCAGCAGUGAUGUUGCUGAAAAUAAUAAAUGAGUCAAAGACUCGGGCCCUUGGCAGCAGUCUGGUAUCU [TheoBX 8 #SwitchBubble #StaticStem] | 111 nM | 114 nM | 116 nM | 117 nM | 95.9 nM |
| UGAUACCAGACUGAUACCAGCCAGUGAUGUUGGCUAAUCCAAGAAGGAGUCAAAGACUCCGGCCCUUGGCAGCAGUCUGGUAUCU [TheoBX 3 #SwitchBubble #StaticStem] | 117 nM | 104 nM | 111 nM | 110 nM | 109 nM |
| UGAUACCAGACUGAUACCAGCGAGUGAUGUUCGUUGAAAUCAGGGUCAAAGACCCUGUCUCGCCCUUGGCAGCAGUCUGGUAUCU [TheoBX 22 #SwitchBubble #StaticStem] | 690 nM | 704 nM | 829 nM | 320 nM | 785 nM |
| UGAUACCAGACUGAUACCAGCUAGUGAUGUUAGCUGAAAUCAGGGUCAAAGACCCUGUCUGGCCCUUGGCAGCAGUCUGGUAUCU [TheoBX 18 #SwitchBubble #StaticStem] | 83.2 nM | 72.3 nM | 76.2 nM | 73.2 nM | 71.2 nM |
| UGAUACCAGACUGAUACCAGCUAGUGAUGUUAGCUGAUCUAAGGACCGUCAAAGACGGCUAGCCCUUGGCAGCAGUCUGGUAUCU [TheoBX 13 #SwitchBubble #StaticStem] | 120 nM | 105 nM | 121 nM | 130 nM | 121 nM |
